Results taken from PMC5719032, “Differentially evolved glucosyltransferases determine natural variation of rice flavone accumulation and UV-tolerance” (Nature Communications, 2017).

Experiments:
[1] = substrate: O=c1c(O)c(-c2ccc(O)c(O)c2)oc2cc(O)cc(O)c12; assay: purified protein, by the assay type; parameters: HPLC glucoside product formation by recombinant GST-UGT, 1.5 mM UDP-glucose, Michaelis-Menten fit; details: pH 8.0; 20.0 °C
Description: (§1) To determine the kinetic constants of UGTs for flavonoid acceptors, their activities were determined using 0 to 400 μM different flavonoids at a fixed concentration of 1.5 mM UDP-glucose. Flavonoids were purchased from BioBioPha Co., Ltd (www.biobiopha.com/) and UDP-sugars were purchased from Sigma-Aldrich, USA. All Kinetic parameters were calculated using Michaelis-Menten model (Sigma Plot, version 12.5). All the reactions were run in duplicate, and each experiment was repeated twice. The full cDNA of UGTs from Nipponbare (O. sativa L. spp. japonica) were cloned into the pGEX-6p-1 expression vector (Novagen) with a glutathione S-transferase tag. Recombinant proteins were expressed in BL21 (DE3) cells (Novagen) following induction by addition of 0.1 mM isopropy-β-D-thiogalactoside (IPTG) and growing continually for 16 h at 20 °C. Cells were collected and pellets were resuspended in lysis buffer (50 mM Tris-HCl, pH 8.0, 400 mM NaCl). The cells were disrupted by the high pressure cracker and cell debris was removed by centrifugation (14000 g, 1 h). Glutathione Sepharose 4B agarose (GE Healthcare) was added to the supernatant containing the target proteins. After incubation for 1 h, the mixture was transferred into a disposable column and washed extensively with lysis buffer (5 column volumes). Target proteins in collections were confirmed by SDS-PAGE and purified recombinant proteins were selected for enzyme assays and kinetics determination.

[2] = substrate: O=c1cc(-c2ccc(O)c(O)c2)oc2cc(O)cc(O)c12; assay: purified protein, by the assay type; parameters: HPLC glucoside product formation by recombinant GST-UGT, 1.5 mM UDP-glucose, Michaelis-Menten fit; details: pH 8.0; 20.0 °C
Description: as §1

purified protein [3] = substrate: O=c1c(O)c(-c2ccc(O)cc2)oc2cc(O)cc(O)c12; assay: purified protein; details: 1.5 mM UDP-glucose, 5 mM MgCl2, Tris-HCl pH 7.4, 37 °C, 3-O-glucosylation
purified protein [4] = substrate: O=c1cc(-c2ccc(O)cc2)oc2cc(O)cc(O)c12; assay: purified protein; details: 1.5 mM UDP-glucose, 5 mM MgCl2, Tris-HCl pH 7.4, 37 °C

Protein	Km [1] [µM]	kcat [1] [s⁻¹]	kcat/Km [1] [M⁻¹ s⁻¹]	Km [2] [µM]	kcat [2] [s⁻¹]	kcat/Km [2] [M⁻¹ s⁻¹]	Km (purified protein [3]) [µM]	kcat (purified protein [3]) [s⁻¹]	Km (purified protein [4]; 5-O-glucosylation) [µM]	kcat (purified protein [4]; 5-O-glucosylation) [s⁻¹]	Km (purified protein [4]; 7-O-glucosylation) [µM]	kcat (purified protein [4]; 7-O-glucosylation) [s⁻¹]
OsUGT707A2 (Oryza sativa Japonica Group) (protein, full cDNA in pGEX-6p-1, N-terminal GST fusion, E. coli BL21(DE3), glutathione Sepharose purified) MAPAMASSAATVVLIPFCVSGHLTPMLEVGKRMLRSRCCGDDDDGRPAMSLTVLLAQLPESHRAPEIDEIIRREAAGASEHSGFDVRFHCLPAEELPDFRGGEDFISRFMQQHASHAREAIAGLESRVAAVVLDWFCTTLLDVTRDLGLPGYVFFTSAASMLSLLLRLPALDKEVAVDFEEMGGAVDLPGLPPVPAALLPTPVMKKGCNYEWLVYHGSRFMEAAGIIVNTVAELEPAVLEAIADGRCVPGRRVPAIYTVGPVLSFKTPPEKPHECVRWLDAQPRASVVFLCFGSMGSFAPPQVLEIAAGLERSGHRFLWVLRGRPPAGSPYPTDADADELLPEGFLERTKGRGMVWPTWAPQKDILAHAAVGGFVTHGGWNSTLESLWHGVPMAPWPLYAEQHLNAFELVRDMGVAVEMEVDRKRGNLVEAAELERAVRCLMDEGSEEGRMAREKAAAAKAACRNAVDGGGSSIAALRKLTQEMAHMSSI	5.1 ± 0.6	0.06 ± 0.01	10000	1.5 ± 0.5	0.05 ± 0.01	30000	6.7 ± 0.7	0.20 ± 0.01	8.9 ± 1.8	0.4 ± 0.06	–	–
OsUGT706D1 (Oryza sativa Japonica Group) (protein, full cDNA in pGEX-6p-1, N-terminal GST fusion, E. coli BL21(DE3), glutathione Sepharose purified) MESKPSRNVVLYAAMGAGHLLPMVELAKLFLTRGLDVTIAVPATPGSGTTGSPTIAGIAASNPSITFHHLPPPPSCADPDPNPLLLMLDVLRRSVPSLASLLRSIPSVAALVLDIFCAEAVDAAAALHVPAYIYFTSAAGAFAASLGLMHHYSTTTTNLRDMGKALLRFPGVPPIPASDMPSLVQDREGRFYKARVKLYARAMEASGVLLNTYEWLEARAMGALREGACSPDRPTPPVYCVGPLVASGEEEGGGVRHACLAWLDAQPARSVVFLCFGSMGSFSAAQLKEIARGLESSGHRFLWVVRSPRQDPANLLEHLPEPDLAALLPEGFLERTADKGMVVKSWAPQAKVLRHAATAAFVTHCGWNSTLEGITAGVPLLCWPLYAEQRMNKVFIVEEMKVGVVIDGYDEEMVSAEEVEAKVRLVMESEEGGKLLERLAVARAKAVEALAEEGPSRVAFDEFIDRLVTSE	11.9 ± 1.9	0.07	–	11.6 ± 0.35	0.4 ± 0.2	40000	16.8 ± 1.3	0.4 ± 0.01	–	–	17.7 ± 1.3	0.7 ± 0.02
